# B1: rhHAPLN1: recombinant human HAPLN1 protein of SEQ ID NO: 1 produced in CHO-K1 cells, stabilized in acetic acid buffer, sucrose, PS80, pH 5.0 (protein, listed as Homo sapiens)
# chain: MKSLLLLVLISICWADHLSDNYTLDHDRAIHIQAENGPHLLVEAEQAKVFSHRGGNVTLPCKFYRDPTAFGSGIHKIRIKWTKLTSDYLKEVDVFVSMGYHKKTYGGYQGRVFLKGGSDSDASLVITDLTLEDYGRYKCEVIEGLEDDTVVVALDLQGVVFPYFPRLGRYNLNFHEAQQACLDQDAVIASFDQLYDAWRGGLDWCNAGWLSDGSVQYPITKPREPCGGQNTVPGVRNYGFWDKDKSRYDVFCFTSNFNGRFYYLIHPTKLTYDEAVQACLNDGAQIAKVGQIFAAWKILGYDRCDAGWLADGSVRYPISRPRRRCSPTEAAVRFVGFPDKKHKLYGVYCFRAYN
# Legend:
# [1] = test system: normal human dermal fibroblast (NHDF); test: TGFβ1-induced fibrosis of human dermal fibroblasts, αSMA western blot; assay type: cell-based
# Description: (1) Human dermal fibroblasts (normal human dermal fibroblast, NHDF) were seeded (1.0×10^5 cells/well) in a 6-well plate and incubated in FBM-2 (fibroblast growth medium-2, CC-3131, Lonza) medium for 24 hours in an incubator at 37° C. 5% CO2.
# (2) After replacing with serum-free medium, the medium was incubated for 24 hours.
# (§1) (3) In this regard, under conditions in which fibrosis was induced by treatment with TGFβ1 (10 ng/ml), each well of the plate was treated with the composition of the present disclosure based on Preparation Example 2 but with rhHAPLN1 protein content of 0, 3, 10, 30, and 100 ng/ml and 100 μg/mL and 200 μg/mL of pirfenidone (Selleckchem), a commercially available anti-fibrotic agent, respectively, and incubated for 24 hours.
# (§2) (4) Afterwards, each sample was washed twice with phosphate buffered saline (PBS, pH 7.2), and then the expression level of αSMA, a marker for myofibroblasts, was confirmed by western blot.
# [2] = test system: normal human lung fibroblast (NHLF); test: TGFβ1-induced fibrosis of normal human lung fibroblasts, αSMA western blot; assay type: cell-based
# Description: (1) normal human lung fibroblasts (NHLF) cultured for 9 passages were seeded (1.0×10^5 cells/well) in a 6-well plate and incubated in FBM-2 (Fibroblast Growth Medium-2, CC-3131, Lonza) medium for 24 hours in an incubator at 37° C. 5% CO2. (2) After replacing with serum-free medium, the medium was incubated for 24 hours.
# as §1, with “disclosure” for “disclosure based on Preparation Example 2 but”, “3.1, 12.5, 25” for “3, 10, 30,”, “(Selleckchem),” for “(Selleckchem), a commercially available anti-fibrotic agent,”
# as §2
# [3] = test system: ischemia/reperfusion-induced kidney fibrosis; test: Ischemia/reperfusion kidney fibrosis mouse model; assay type: in vivo
# Description: According to the experimental scheme of FIG. 14A, 8-week-old C57BL/6 male mice were subjected to pentobarbital (50 mg/kg BW, i.p.) anesthesia, a flank incision was made to induce ischemia, the kidneys were exposed, and blood flow was blocked for 25 minutes by clamping the bilateral renal pedicles using a non-traumatic microaneurysm clamp (Roboz Surgical Instruments). The clamps were then removed and the incisions were sutured. The sham-operation was performed in the same manner as the ischemia/reperfusion experiment, except for the blockage of blood flow.
# One day after ischemia, blood urea nitrogen (BUN) was measured, and only mice whose value rose above about 98 mg/dL (specified as 100 mg/dl from now on) were grouped into experimental groups and the experiment was conducted. The experimental groups were administered various drugs, including the composition of the present disclosure, daily from day 7 after surgery, and the kidneys were harvested on day 14 for histologic and biochemical analysis.
# In addition, blood was taken on day 7 after drug administration to measure BUN concentration, and 14 days later, blood and urine were taken to measure creatinine concentration in blood and urine and BUN concentration in blood. Additionally, creatinine clearance was calculated.
# Biochemical analysis (evaluation of fibrosis index expression): To confirm the expression of αSMA in kidney tissue, western blot was performed using antibodies against αSMA.
# To confirm the expression of αSMA in sham-operation (Sham) and ischemia/reperfusion (IR) mouse kidney tissue, samples from each experimental group were loaded onto a single gel, western blot was performed, and the density of each band was measured. Ponceau and GADPH were utilized as equal loading markers (FIG. 14B). Where SV; sham-vehicle, SB; sham-rhHAPLN1-dissolving solution, IRV; IR-vehicle, IRP; IR-pirfenidone, IRA; IR-composition of the present disclosure (rhHAPLN1) A, IRB; IR-composition of the present disclosure (rhHAPLN1) B, IRC; IR-composition of the present disclosure (rhHAPLN1) C, respectively, and more details are shown in Table 1 and Table 2 above. More specifically, the Sham-vehicle is a group in which only the rhHAPLNB1-free buffer solution was diluted in PBS and IP-injected into the Sham control group. Sham-rhHAPLN1-dissolving solution is a group in which rhHAPLN1 concentration B (0.02 mg/kg) was diluted and IP injected to confirm the effect of rhHAPLN1 under normal conditions. […] IR-pirfenidone is a group in which 300 mg/kg of pirfenidone was administered orally after induction of I/R fibrosis.
# In addition, the fold change in expression level for IRV in relation to αSMA expression was graphed (FIG. 14C).
# As part of the histological analysis of fibrosis, paraffin-fixed kidneys were cut into 3 μm sections, and Sirus red and PAS staining were performed on these slide sections to assess collagen expression and fibrotic lesions in the tissue, respectively (FIG. 14D). Where SV; sham-vehicle, SB; sham-rhHAPLN1-dissolving solution, IRV; IR-vehicle, IRP; IR-pirfenidone, IRA; IR-composition of the present disclosure (rhHAPLN1) concentration 0.1 mg/kg, IRB; IR- the composition of the present disclosure (rhHAPLN1) at a concentration of 0.02 mg/kg, IRC; IR-the composition of the present disclosure (rhHAPLN1) at a concentration of 0.004 mg/kg, respectively.
# In addition, in order to quantify the expression of collagen in the above-mentioned tissue, two of the outer medulla areas of the kidney were randomly imaged in the tissue staining photograph of FIG. 14D, and collagen-positive area was marked. Here, the red color is a sirus red positive signal (FIG. 14E).
# As an experiment to analyze kidney function, blood was taken through a glass capillary tube with heparin added through the retroorbital vein plexus, and urine was obtained using a metabolic cage. Blood urea nitrogen and creatinine (plasma creatinine, PCr) concentrations were measured using Vitros250 (Johnson & Johnson). […]
# [4] = IRP: pirfenidone 300 mg/kg B.W oral
# [5] = IRA: rhHAPLN1 0.1 mg/kg B.W intraperitoneal
# [6] = IRB: rhHAPLN1 0.02 mg/kg B.W intraperitoneal
Molecule,"expression level of αSMA at 200 μg/mL versus 100 μg/mL ([1]; pirfenidone 200 μg/mL, TGFβ1 10 ng/ml)","optimal anti-fibrotic concentration (assumed) ([1]; αSMA, TGFβ1 10 ng/ml) [µg/mL]",anti-fibrotic effect (expression level of αSMA compared to composition without rhHAPLN1) ([2]; pirfenidone 100 and 200 μg/mL),"collagen positive area compared to IRV, quantified with i-Solution (FIG. 14F) [3, 4]","expression of collagen compared to IRV, blinded test of stained photographs (FIG. 14D) [3, 4]","expression level of αSMA compared to composition that does not include rhHAPLN1 protein (FIG. 1B) ([1]; TGFβ1 10 ng/ml, all rhHAPLN1 contents 3, 10, 30, 100 ng/ml, 24 hours)","anti-fibrotic action from αSMA western blot band, compared to pirfenidone (FIG. 1A) ([1]; TGFβ1 10 ng/ml, pirfenidone 100 and 200 μg/mL)","rhHAPLN1 protein content showing the most excellent anti-fibrotic efficacy ([1]; TGFβ1 10 ng/ml, αSMA) [ng/mL]","anti-fibrotic efficacy higher than pirfenidone at 100 μg/mL ([1]; rhHAPLN1 100 ng/ml, αSMA) [%]","expression level of αSMA compared to composition that does not include rhHAPLN1 protein (FIG. 5B) ([2]; TGFβ1 10 ng/ml, rhHAPLN1 3.1, 12.5, 25, 100 ng/ml, 24 hours)","anti-fibrotic action from αSMA western blot band, compared to pirfenidone (FIG. 5A) ([2]; all rhHAPLN1 contents, pirfenidone 100 and 200 μg/mL)",anti-fibrotic efficacy relative to pirfenidone at 100 μg/mL and at 200 μg/mL ([2]; rhHAPLN1 12.5 ng/ml),rhHAPLN1 protein content showing the most excellent anti-fibrotic efficacy ([2]; αSMA) [ng/mL],"collagen positive area compared to IRV, quantified with i-Solution (FIG. 14F) [3, 5]","expression of collagen compared to IRV, blinded test of stained photographs (FIG. 14D) [3, 5]","expression of αSMA in kidney compared to IRV (FIG. 14C) [3, 5]","collagen positive area compared to IRV, quantified with i-Solution (FIG. 14F) [3, 6]","expression of collagen compared to IRV, blinded test of stained photographs (FIG. 14D) [3, 6]","expression of αSMA in kidney compared to IRV (FIG. 14C) [3, 6]",expression of αSMA in kidney compared to IRV (FIG. 14C) ([3]; IRC: rhHAPLN1 0.004 mg/kg B.W intraperitoneal)
"Cc1ccc(=O)n(-c2ccccc2)c1 [pirfenidone, reference compound]",higher expression level of αSMA than 100 μg/mL,100,no anti-fibrotic effect,weaker,weaker,,,,,,,,,,,,,,,
B1,,,,,,significantly lower,much better anti-fibrotic action than pirfenidone,100,25,significantly lower,much better anti-fibrotic action compared to pirfenidone,about twice as higher,12.5,weaker,weaker,lowered to pirfenidone-like levels,weaker,weaker,lowered to pirfenidone-like levels,as high as the IRV
